# Experiments:
# MS2 coat protein [1] = assay: apparent KD of MS2 coat protein; designed switch direction (-1 OFF switch, 1 ON switch): -1; higher = weaker reporter binding; details: Eterna round: R98
# Protocol: (§1)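 RNA-MaP: designed FMN/MS2 RNA switches (84 nt design region) are transcribed on-chip within common flanks and titrated with SNAP-549-labelled MS2 coat protein (about 1-3000 nM) in 100 mM Tris pH 7.5, 80 mM KCl, 4 mM MgCl2, without or with 200 uM FMN. Median apparent KD per design; activation ratio = KD,OFF / KD,ON.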
# MS2 coat protein [2] = assay: apparent KD of MS2 coat protein; designed switch direction (-1 OFF switch, 1 ON switch): 1; higher = weaker reporter binding; details: Eterna round: R98
# Protocol: as §1
Sequence,apparent KD of MS2 coat protein (MS2 coat protein [1]; input ligand: FMN 200 uM),apparent KD of MS2 coat protein (MS2 coat protein [1]; input ligand: none),apparent KD of MS2 coat protein (MS2 coat protein [2]; input ligand: FMN 200 uM),apparent KD of MS2 coat protein (MS2 coat protein [2]; input ligand: none)
GCGUGUGGAUCAGGAUAUUACAUGAGGAUCACCCAUGUAGGCAUGAGGGUCACCCGUGUUGUGUGUAAGAAGGGAUCGCCCGUG [Exclusion2],74.1 nM,46 nM,,
AAAAUAAAGGCAGGAUAUACAUGAAUAAAUAAAAUAAUAUAAAAUAAAACAUGAGGAUCACCCAUGUAGAAGGGCCAAAAUAAA [LRO022_Exclusion NG 2],187 nM,83.3 nM,,
AGCGGUGCGUGUGUUGUGACACAUGAGGAUCACCCAUGUAGGAAGGAUAUGCAGUUGGGCACGCGGCAGAAGGUCCGACAUGGA [Riuscein],58.6 nM,529 nM,,
GCUGCUAUCGCAGGAUAUUACAUGGGAAAGAAUACAUGAGGAUCACCCAUGUAAAAGAUCGUAAAUAAGAAGGGCGAUAGCAGC [Lame State 5 - Jieux - Same State NG 2],,,353 nM,329 nM
AAAACAUGAGGAUCACCCAUGUAUAGAACGGUUAAUAAAAGUGAGGAUAUACUAAAUUUUAUAUAGUAGAAGGCACUGGGUACU [JR_SSNG3_Sub010],,,24.7 nM,17.1 nM
ACAUACAUUCGAGGAUAUCGGUGAACAAAUUAACGAGAAGGCGAUAUAAUUUUUAAUCUUAUAAACAUGAGGAUCACCCAUGUA [JR_SSNG1_Sub001],,,17 nM,20.9 nM
GGAUCCAUCACAGGAUAUGCUGGACUUUGUCCAGCAGAAGGGUGAAACAUGAGGAUCACCCAUGUAAAGGAUCCUAUAUUUAAU [Denovo 26],,,34.3 nM,291 nM
GCUUGCGACGCAGGAUAUGGGUGCCUAAACACGAGGAUCACCCGUGUACAGGAAGCGAAAAGCUCUCAGAAGGGCGUCGCAGGC [United States 8 - Jieux - Same State NG 2],,,17.2 nM,22.6 nM

# Reference: the supplement of paper PMC9170038
